Experiments:
[1] = biological target: T1, human OX40 expressed on cells (human, UniProt P43489 29-277); assay: cell-based or functional assay
T1 sequence: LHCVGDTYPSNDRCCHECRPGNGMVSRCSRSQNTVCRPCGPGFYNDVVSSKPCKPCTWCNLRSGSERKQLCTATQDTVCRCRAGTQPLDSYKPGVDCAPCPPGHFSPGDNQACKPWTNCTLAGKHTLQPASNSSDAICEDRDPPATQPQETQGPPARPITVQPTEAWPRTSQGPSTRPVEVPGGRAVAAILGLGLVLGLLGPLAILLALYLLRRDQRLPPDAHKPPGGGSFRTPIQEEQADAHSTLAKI

[2] = biological target: T2, human OX40 chimera with murine CRDII replacing human CRDII (human/mouse chimera, UniProt P43489 29-277); assay: flow cytometry on 293s-huOX40-muCRDII cells
T2 chain: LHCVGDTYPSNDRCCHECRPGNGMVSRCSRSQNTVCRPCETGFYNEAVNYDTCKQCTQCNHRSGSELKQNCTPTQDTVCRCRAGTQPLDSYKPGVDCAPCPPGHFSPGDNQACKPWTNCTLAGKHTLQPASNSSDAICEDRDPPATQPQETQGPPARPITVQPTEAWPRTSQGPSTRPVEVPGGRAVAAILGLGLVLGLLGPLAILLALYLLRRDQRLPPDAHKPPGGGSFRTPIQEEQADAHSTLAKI
Protocol: (§1) After plating cells, 50 μL of Hu3738 or isotype control antibody at 2 μg/mL were added to corresponding wells in duplicate for each cell line and allowed to incubate on ice for 30 minutes. Following incubation, 200 μL of Dulbecco's Phosphate Buffered Saline (DPBS) was added into each well and plates were spun down at 1000 rpm for three minutes. Supernatants from each well were removed and 50 μL of Cy5-Donkey anti-Human IgG (Jackson ImmunoResearch) secondary antibody was added at a 1:250 dilution, which was then incubated for 30 minutes on ice in the dark. Following the incubation period, 200 μL of DPBS was added prior to spinning down the plate at 1000 rpm for three minutes. Supernatants were removed and each well was re-suspended with 100 μL of DPBS+1% Formaldehyde. Samples were analyzed on the dual laser FACSCalibur flow cytometer (Becton Dickinson).

[3] = biological target: T3, human OX40-FC (R&D Systems) (human, UniProt P43489 29-216); assay: ELISA on plates coated with human OX40-Fc
T3 construct: Purchased reagent; also called recombinant human OX40; not shown: Fc part of the purchased fusion
T3 sequence: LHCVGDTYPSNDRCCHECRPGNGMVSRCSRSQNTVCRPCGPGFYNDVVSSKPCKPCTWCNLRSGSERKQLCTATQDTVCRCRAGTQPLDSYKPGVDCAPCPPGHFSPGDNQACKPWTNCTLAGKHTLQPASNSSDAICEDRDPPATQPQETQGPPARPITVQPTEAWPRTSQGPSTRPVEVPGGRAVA
Protocol: Immunolon 4×HB 96-well plates (Thermo Scientific) were coated with 1 μg/mL of human OX40-FC (R&D Systems) at 4° C. overnight. Plates were blocked with phosphate-buffered saline (PBS) containing 1% bovine serum albumin (BSA) for 30 minutes at room temperature and then washed three times with PBST (PBS with 0.1% Tween 20) using a plate washer. OX40-coated plates were then incubated with indicated concentrations of test antibody at room temperature for one hour. Plates were washed four times with PBST and then incubated for 1 hour at room temperature with 100 μL of goat anti-human Fab fragment specific-Biotin (Jackson ImmunoResearch) prepared to a dilution of 1:5000 in PBS containing 1% BSA. Plates were then washed five times in PBST and 100 μL of a 1:1000 dilution of streptavidin-horseradish peroxidase (HRP) (Thermo Scientific) was added to each well and incubated for 30 minutes at room temperature. Plates were subsequently washed five times in PBST and 100 μL of TMB One component (Surmodics) were added to each well and incubated at room temperature (RT) until color developed (approximately 5-10 minutes). Optical density (OD) was read at 650 nm (Molecular Devices Spectromax190).

[4] = biological target: T4, cynomolgus OX40 on activated cynomolgus monkey CD4+ T cells (cynomolgus monkey, UniProt P43489 29-277 (human entry)); assay: flow cytometry on PHA and IL-2 activated cynomolgus monkey CD4+ T cells
T4 chain: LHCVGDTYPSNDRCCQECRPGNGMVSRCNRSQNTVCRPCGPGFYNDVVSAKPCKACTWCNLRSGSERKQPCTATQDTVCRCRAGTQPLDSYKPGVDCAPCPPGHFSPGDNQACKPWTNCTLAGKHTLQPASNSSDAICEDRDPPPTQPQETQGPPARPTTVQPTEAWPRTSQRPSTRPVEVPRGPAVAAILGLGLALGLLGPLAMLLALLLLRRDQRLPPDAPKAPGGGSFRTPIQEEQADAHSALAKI
Protocol: Cynomolgus monkey whole blood was purchased from Worldwide Primates. For isolation of PBMCs, whole blood was diluted in a 1:1 ratio with PBS without magnesium and calcium (GE Healthcare). Diluted blood (30 mL) was layered under 13 mL of 95% Ficoll-Paque Plus (GE Healthcare) prepared in PBS without magnesium and calcium (GE Healthcare) in 50-mL conical tubes. The tubes were spun at 1000 g for 25 minutes. The interphase was collected and washed twice in 1×PBS. Cells were resuspended to 2×10⁶ cells/mL in RPMI/10% FBS. Cells were incubated for […] with […] phytohemagglutinin (PHA) (Sigma) and 100 U/mL recombinant human interleukin-2 (IL-2) (Proleukin®, Prometheus) in 6-well plates. After 24 hours, cells were washed, counted and resuspended to 2×10⁶/mL. 100 μL of the cells were used per stain. Test anti-OX40 antibody was titrated in a 4-fold dilution series starting at 1 μg/mL. Cells were stained for 30 minutes and washed twice. A 1:250 dilution (4 μg/mL) of Goat anti-Human IgG Fc specific-PE (Jackson ImmunoResearch) in 100 μL PBS containing 1% BSA was added per well. Cells were stained for an additional 30 minutes and washed twice, transferred to tubes and acquired using the BD LSR Fortessa flow cytometer, and analyzed using FACSDiva analysis software version 8.0.1.

293s-huOX40-muCRDIII = biological target: T5, 293s-huOX40-muCRDIII; assay: flow cytometry on 293s transfectants, Hu3738 added at 2 µg/mL, Cy5 donkey anti-human IgG
T5 construct: cell-surface chimera, named on the sheet by its cell line; also called human OX40 chimera with murine CRDIII replacing human CRDIII
T5 receptor chain: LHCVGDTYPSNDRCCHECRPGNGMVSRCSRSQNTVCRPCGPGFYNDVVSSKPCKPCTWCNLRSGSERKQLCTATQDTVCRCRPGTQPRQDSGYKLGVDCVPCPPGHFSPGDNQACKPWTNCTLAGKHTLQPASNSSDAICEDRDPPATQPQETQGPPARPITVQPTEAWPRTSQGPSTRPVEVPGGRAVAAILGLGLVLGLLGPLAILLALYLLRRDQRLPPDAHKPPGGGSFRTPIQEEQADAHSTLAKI
Protocol: as §1

- EC50 With Cross-linker (nM), NF-κB signaling [1]: 0.02 nM
- EC50 Without Cross-linker (nM), NF-κB signaling [1]: 22 nM
- binding result [2]: no binding (tested: 2 µg/mL)
- EC50 [3]: 0.044 nM
- EC50 [4]: 0.024 nM
- binding result (293s-huOX40-muCRDIII): binds
B1: Hu3738 (antibody, V domains shown)
VH: EVQLVESGGGLVQPGGSLRLSCAASGFTFSRYGMSWVRQAPGKGLELVATINSNGGRTYYPDSVKGRFTISRDNAKNSLYLQMNSLRAEDTAVYYCAREGITTAYAMDYWGQGTTVTVSS
VL: DIVMTQSPDSLAVSLGERATINCKASQSVDYDGDSYMHWYQQKPGQPPKLLIYAASILESGVPDRFSGSGSGTDFTLTISSLQAEDVAVYYCQQSNEDPRTFGGGTKVEIKR
notes: Humanized antibody; also called exemplary anti-OX40 antibody Hu3738; Hu3738 VH.1b / Hu3738 VL.1

Reference: patent US20210017289A1 (AbbVie / Abbott, published 2021)
